Results from US20160114000A1 (Merck Sharp & Dohme, published 2016).
*1 amine or outer side, *2 acyl side, *3 side chain or, on linkers, in order; H or OH if unused. Where a SMILES comes first, the peptide text is derived from it. Where no end group is shown, it is not given here. Side-chain parts run from the residue outwards. [ ]: non-standard residue; d: D form. The star is where a group is joined. γGlu = O=C(O)[C@H](CCC(=O)[*:2])N[*:1]; Palmitoyl = CCCCCCCCCCCCCCCC(=O)*

Experiments:
human GCGR = target: T1, human GCGR (Homo sapiens, UniProt P47871); experiment: cAMP protocol, cells expressing human GCGR; format: cell-based; conditions: ratio of EC50 at human GCGR to EC50 at human GLP1R
T1 construct: expressed in transfected cells; grown under Geneticin and Hygromycin selection
T1 sequence (P47871 26-477): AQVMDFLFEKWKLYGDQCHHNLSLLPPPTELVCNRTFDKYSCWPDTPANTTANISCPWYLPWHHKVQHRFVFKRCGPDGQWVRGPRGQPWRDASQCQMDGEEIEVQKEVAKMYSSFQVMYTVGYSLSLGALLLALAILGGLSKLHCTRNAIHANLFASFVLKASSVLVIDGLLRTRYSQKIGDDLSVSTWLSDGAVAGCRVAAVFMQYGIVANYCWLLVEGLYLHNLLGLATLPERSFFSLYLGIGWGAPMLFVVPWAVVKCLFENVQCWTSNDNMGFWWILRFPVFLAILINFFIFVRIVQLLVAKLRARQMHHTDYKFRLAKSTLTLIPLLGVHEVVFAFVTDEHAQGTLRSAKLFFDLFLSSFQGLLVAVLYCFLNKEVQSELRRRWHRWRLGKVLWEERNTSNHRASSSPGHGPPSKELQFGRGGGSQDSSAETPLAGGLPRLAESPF
Protocol: The cAMP protocol was as follows.
Peptides were dissolved in 100% DMSO and serially diluted to generate 11 point titrations. The peptide solutions were then transferred into 384-well assay plates (150 nL/well). Assay ready frozen cells expressing human GLP-1R or human GCGR were suspended in growth media consisting of DMEM/F12 medium (GIBCO), 10% FBS (GIBCO), lx P/S (GIBCO), 800 μg/mL Geneticin (GIBCO), and 300 μg/mL Hygromycin (Invitrogen). Cells were then diluted in assay buffer consisting of PBS (GIBCO), 7.5% BSA (Perkin Elmer), 100 μM RO 20-1724 (Sigma), and 20% human serum (MP Biomedical). The cell suspensions (15 μL) were then added to the assay plates containing the peptide solutions (30,000 cells/well for human GCGR; 20,000 cells/well for GLP1R). The cells were incubated for 1 hour at room temperature in the dark. Production of cAMP was determined using HitHunter™ cAMPXS kits (DiscoverX). ED buffer (20 μL) was then added to each well and the plates were incubated for 1 hour at room temperature in the dark. Subsequently, EA buffer (20 μL) was added to each well, and the plates were incubated for 1-18 hours at room temperature in the dark. Luminescence was measured using an EnVision Multilabel plate reader (Perkin Elmer). EC50 values were calculated using ADA data analyzer software.

human GLP-1 receptor = human GLP-1 receptor (human, UniProt P43220 24-463); experiment: cell-based or functional assay
human glucagon receptor = human glucagon receptor (human, UniProt P47871 26-477); experiment: cell-based or functional assay
Chain of human glucagon receptor (P47871 26-477): as above

| Molecule | hGCGR/hGLP1R (hTone) (human GCGR) | GLPR1 EC50 (nM) human; cAMP production (HitHunter cAMPXS), 20% human serum (human GLP-1 receptor) [nM] | GCGR EC50 (nM) human; cAMP production (HitHunter cAMPXS), 20% human serum (human glucagon receptor) [nM] | hGCGR/hGLP1R (hTone): ratio of cAMP EC50 at human GCGR to cAMP EC50 at human GLP1R (human glucagon receptor) [ratio] |
| --- | --- | --- | --- | --- |
| CCCCCCCCCCCCCCCC(=O)N[C@@H](CCC(=O)N[C@@H](CCC(=O)NCCCC[C@H](NC(=O)[C@H](CC(=O)O)NC(=O)[C@H](CO)NC(=O)[C@@H](NC(=O)[C@H](Cc1ccccc1)NC(=O)[C@@H](NC(=O)CNC(=O)[C@H](CCC(N)=O)NC(=O)[C@@H](CO)NC(=O)[C@@H](N)Cc1c[nH]cn1)[C@@H](C)O)[C@@H](C)O)C(=O)N[C@@H](CO)C(=O)N[C@@H](CCCCN)C(=O)N[C@@H](Cc1ccc(O)cc1)C(=O)N[C@@H](CC(C)C)C(=O)N[C@@H](CCC(=O)O)C(=O)N[C@@H](C)C(=O)N[C@@H](CCCNC(=N)N)C(=O)N[C@@H](C)C(=O)N[C@@H](C)C(=O)N[C@@H](CCC(N)=O)C(=O)N[C@@H](CC(=O)O)C(=O)N[C@@H](Cc1ccccc1)C(=O)N[C@H](C(=O)N[C@@H](CCC(N)=O)C(=O)N[C@@H](Cc1c[nH]c2ccccc12)C(=O)N[C@@H](CC(C)C)C(=O)N[C@@H](CC(C)C)C(=O)N[C@@H](CC(=O)O)C(=O)N[C@H](C(N)=O)[C@@H](C)O)C(C)C)C(=O)O)C(=O)O [SEQ ID NO: 13] | 0.90 |  |  |  |
| CCCCCCCCCCCCCCCC(=O)N[C@@H](CCC(=O)N[C@@H](CCC(=O)NCCCC[C@H](NC(=O)[C@H](CC(=O)O)NC(=O)[C@H](CO)NC(=O)[C@@H](NC(=O)[C@H](Cc1ccccc1)NC(=O)[C@@H](NC(=O)CNC(=O)[C@H](CCC(N)=O)NC(=O)[C@@H](CO)NC(=O)[C@@H](N)Cc1c[nH]cn1)[C@@H](C)O)[C@@H](C)O)C(=O)N[C@@H](CO)C(=O)N[C@@H](CC(C)C)C(=O)N[C@@H](Cc1ccc(O)cc1)C(=O)N[C@@H](CC(C)C)C(=O)N[C@@H](CC(=O)O)C(=O)N[C@@H](CCC(=O)O)C(=O)N[C@@H](CCCNC(=N)N)C(=O)N[C@@H](C)C(=O)N[C@@H](C)C(=O)N[C@@H](CCC(N)=O)C(=O)N[C@@H](CC(=O)O)C(=O)N[C@@H](Cc1ccccc1)C(=O)N[C@H](C(=O)N[C@@H](CCC(N)=O)C(=O)N[C@@H](Cc1c[nH]c2ccccc12)C(=O)N[C@@H](CC(C)C)C(=O)N[C@@H](CC(C)C)C(=O)N[C@@H](CC(=O)O)C(=O)N[C@H](C(N)=O)[C@@H](C)O)C(C)C)C(=O)O)C(=O)O [SEQ ID NO: 16] (H-H[dS]QGTFTSDK([γGlu-γGlu-Palmitoyl])SLYLDERAAQDFVQWLLDT-NH2) | 0.91 |  |  |  |
| CCCCCCCCCCCCCCCC(=O)N[C@@H](CCC(=O)N[C@@H](CCC(=O)NCCCC[C@H](NC(=O)[C@H](CC(=O)O)NC(=O)[C@H](CO)NC(=O)[C@@H](NC(=O)[C@H](Cc1ccccc1)NC(=O)[C@@H](NC(=O)CNC(=O)[C@H](CCC(N)=O)NC(=O)C1(NC(=O)[C@@H](N)Cc2c[nH]cn2)CCC1)[C@@H](C)O)[C@@H](C)O)C(=O)N[C@@H](CO)C(=O)N[C@@H](CCCCN)C(=O)N[C@@H](Cc1ccc(O)cc1)C(=O)N[C@@H](CC(C)C)C(=O)N[C@@H](CC(=O)O)C(=O)N[C@@H](CCC(=O)O)C(=O)N[C@@H](CCCNC(=N)N)C(=O)N[C@@H](C)C(=O)N[C@@H](C)C(=O)N[C@@H](CCC(N)=O)C(=O)N[C@@H](CC(=O)O)C(=O)N[C@@H](Cc1ccccc1)C(=O)N[C@H](C(=O)N[C@@H](CCC(N)=O)C(=O)N[C@@H](Cc1c[nH]c2ccccc12)C(=O)N[C@@H](CC(C)C)C(=O)N[C@@H](CC(C)C)C(=O)N[C@@H](CC(=O)O)C(=O)N[C@H](C(N)=O)[C@@H](C)O)C(C)C)C(=O)O)C(=O)O [SEQ ID NO: 18] | 1.25 |  |  |  |
| H[dS]QGTFTSDK([γGlu-γGlu-Palmitoyl])SKYLEARAAQDFVQWLLDT-NH2 (N-terminus assumed; SMILES CCCCCCCCCCCCCCCC(=O)N[C@@H](CCC(=O)N[C@@H](CCC(=O)NCCCC[C@H](NC(=O)[C@H](CC(=O)O)NC(=O)[C@H](CO)NC(=O)[C@@H](NC(=O)[C@H](Cc1ccccc1)NC(=O)[C@@H](NC(=O)CNC(=O)[C@H](CCC(N)=O)NC(=O)[C@@H](CO)NC(=O)[C@@H](N)Cc1c[nH]cn1)[C@@H](C)O)[C@@H](C)O)C(=O)N[C@@H](CO)C(=O)N[C@@H](CCCCN)C(=O)N[C@@H](Cc1ccc(O)cc1)C(=O)N[C@@H](CC(C)C)C(=O)N[C@@H](CCC(=O)O)C(=O)N[C@@H](C)C(=O)N[C@@H](CCCNC(=N)N)C(=O)N[C@@H](C)C(=O)N[C@@H](C)C(=O)N[C@@H](CCC(N)=O)C(=O)N[C@@H](CC(=O)O)C(=O)N[C@@H](Cc1ccccc1)C(=O)N[C@H](C(=O)N[C@@H](CCC(N)=O)C(=O)N[C@@H](Cc1c[nH]c2ccccc12)C(=O)N[C@@H](CC(C)C)C(=O)N[C@@H](CC(C)C)C(=O)N[C@@H](CC(=O)O)C(=O)N[C@H](C(N)=O)[C@@H](C)O)C(C)C)C(=O)O)C(=O)O) [Co-agonist Peptide 8] |  | 0.02 | 0.02 | 0.9 |
| HXQGTFTSDKSKYLDERAAQDFVQWLXDT (D-Ser at 2; Lys 10 conjugated to γEγE-C16 (palmitoyl); methionine sulfone at 27; C-terminal amide) [Co-agonist Peptide 10] |  | 0.02 | 0.02 | 1.1 |
| H[dS]QGTFTSDK([γGlu-Palmitoyl])SKYLDARAAQDFVQWLLDT-NH2 (N-terminus assumed; SMILES CCCCCCCCCCCCCCCC(=O)N[C@@H](CCC(=O)NCCCC[C@H](NC(=O)[C@H](CC(=O)O)NC(=O)[C@H](CO)NC(=O)[C@@H](NC(=O)[C@H](Cc1ccccc1)NC(=O)[C@@H](NC(=O)CNC(=O)[C@H](CCC(N)=O)NC(=O)[C@@H](CO)NC(=O)[C@@H](N)Cc1c[nH]cn1)[C@@H](C)O)[C@@H](C)O)C(=O)N[C@@H](CO)C(=O)N[C@@H](CCCCN)C(=O)N[C@@H](Cc1ccc(O)cc1)C(=O)N[C@@H](CC(C)C)C(=O)N[C@@H](CC(=O)O)C(=O)N[C@@H](C)C(=O)N[C@@H](CCCNC(=N)N)C(=O)N[C@@H](C)C(=O)N[C@@H](C)C(=O)N[C@@H](CCC(N)=O)C(=O)N[C@@H](CC(=O)O)C(=O)N[C@@H](Cc1ccccc1)C(=O)N[C@H](C(=O)N[C@@H](CCC(N)=O)C(=O)N[C@@H](Cc1c[nH]c2ccccc12)C(=O)N[C@@H](CC(C)C)C(=O)N[C@@H](CC(C)C)C(=O)N[C@@H](CC(=O)O)C(=O)N[C@H](C(N)=O)[C@@H](C)O)C(C)C)C(=O)O) [Co-agonist Peptide 1] |  | 0.048 | 0.042 | 0.88 |
| HXQGTFTSDKSKYLDERAAQDFVQWLLDT (D-Ser at 2; Lys 10 conjugated to γEγE-C16 (palmitoyl); C-terminal amide) [Comparator Co-agonist Peptide 6] |  | 0.007 | 0.009 | 1.3 |
| HXQGTXTSDKSKYLDERAAQDFVQWLLDT (D-Ser at 2; p-fluorophenylalanine (pFF) at 6; Lys 10 conjugated to γEγE-C16 (palmitoyl); C-terminal amide) [Co-agonist Peptide 9] |  | 0.06 | 0.05 | 0.93 |
| H[dS]QGTFTSDK([γGlu-γGlu-Palmitoyl])SLYLDERAAQDFVQWLLDT-NH2 (N-terminus assumed; SMILES CCCCCCCCCCCCCCCC(=O)N[C@@H](CCC(=O)N[C@@H](CCC(=O)NCCCC[C@H](NC(=O)[C@H](CC(=O)O)NC(=O)[C@H](CO)NC(=O)[C@@H](NC(=O)[C@H](Cc1ccccc1)NC(=O)[C@@H](NC(=O)CNC(=O)[C@H](CCC(N)=O)NC(=O)[C@@H](CO)NC(=O)[C@@H](N)Cc1c[nH]cn1)[C@@H](C)O)[C@@H](C)O)C(=O)N[C@@H](CO)C(=O)N[C@@H](CC(C)C)C(=O)N[C@@H](Cc1ccc(O)cc1)C(=O)N[C@@H](CC(C)C)C(=O)N[C@@H](CC(=O)O)C(=O)N[C@@H](CCC(=O)O)C(=O)N[C@@H](CCCNC(=N)N)C(=O)N[C@@H](C)C(=O)N[C@@H](C)C(=O)N[C@@H](CCC(N)=O)C(=O)N[C@@H](CC(=O)O)C(=O)N[C@@H](Cc1ccccc1)C(=O)N[C@H](C(=O)N[C@@H](CCC(N)=O)C(=O)N[C@@H](Cc1c[nH]c2ccccc12)C(=O)N[C@@H](CC(C)C)C(=O)N[C@@H](CC(C)C)C(=O)N[C@@H](CC(=O)O)C(=O)N[C@H](C(N)=O)[C@@H](C)O)C(C)C)C(=O)O)C(=O)O) [Co-agonist Peptide 11] |  | 0.06 | 0.06 | 0.91 |
| H[dS]QGTFTSDK([γGlu-γGlu-Palmitoyl])SKYLDARAAQDFVQWLLDT-NH2 (N-terminus assumed; SMILES CCCCCCCCCCCCCCCC(=O)N[C@@H](CCC(=O)N[C@@H](CCC(=O)NCCCC[C@H](NC(=O)[C@H](CC(=O)O)NC(=O)[C@H](CO)NC(=O)[C@@H](NC(=O)[C@H](Cc1ccccc1)NC(=O)[C@@H](NC(=O)CNC(=O)[C@H](CCC(N)=O)NC(=O)[C@@H](CO)NC(=O)[C@@H](N)Cc1c[nH]cn1)[C@@H](C)O)[C@@H](C)O)C(=O)N[C@@H](CO)C(=O)N[C@@H](CCCCN)C(=O)N[C@@H](Cc1ccc(O)cc1)C(=O)N[C@@H](CC(C)C)C(=O)N[C@@H](CC(=O)O)C(=O)N[C@@H](C)C(=O)N[C@@H](CCCNC(=N)N)C(=O)N[C@@H](C)C(=O)N[C@@H](C)C(=O)N[C@@H](CCC(N)=O)C(=O)N[C@@H](CC(=O)O)C(=O)N[C@@H](Cc1ccccc1)C(=O)N[C@H](C(=O)N[C@@H](CCC(N)=O)C(=O)N[C@@H](Cc1c[nH]c2ccccc12)C(=O)N[C@@H](CC(C)C)C(=O)N[C@@H](CC(C)C)C(=O)N[C@@H](CC(=O)O)C(=O)N[C@H](C(N)=O)[C@@H](C)O)C(C)C)C(=O)O)C(=O)O) [Co-agonist Peptide 5] |  | 0.033 | 0.03 | 0.9 |
| HXQGTFTSDXSKYLDARAAQDFVQWLLDT (D-Ser at 2; para-aminomethyl phenylalanine (pAF) at 10 conjugated to γEγE-C16 (palmitoyl); C-terminal amide) [Co-agonist Peptide 12] |  | 0.05 | 0.05 | 0.98 |
